Assay results published in PMC2756145.

Columns and labels:
[1] = biological target: T1, Pot1pC (Schizosaccharomyces pombe, UniProt O13988 178-389); experiment: EMSA
T1 sequence: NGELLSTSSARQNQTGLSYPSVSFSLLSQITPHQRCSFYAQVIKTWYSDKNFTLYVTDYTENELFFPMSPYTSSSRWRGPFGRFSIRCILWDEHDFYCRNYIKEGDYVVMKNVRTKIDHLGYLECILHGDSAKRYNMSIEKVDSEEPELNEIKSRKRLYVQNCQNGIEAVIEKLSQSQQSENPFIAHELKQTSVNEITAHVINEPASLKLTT

[2] = biological target: T2, Pot1-DBD (Schizosaccharomyces pombe, UniProt O13988 1-389); experiment: filter binding
T2 sequence: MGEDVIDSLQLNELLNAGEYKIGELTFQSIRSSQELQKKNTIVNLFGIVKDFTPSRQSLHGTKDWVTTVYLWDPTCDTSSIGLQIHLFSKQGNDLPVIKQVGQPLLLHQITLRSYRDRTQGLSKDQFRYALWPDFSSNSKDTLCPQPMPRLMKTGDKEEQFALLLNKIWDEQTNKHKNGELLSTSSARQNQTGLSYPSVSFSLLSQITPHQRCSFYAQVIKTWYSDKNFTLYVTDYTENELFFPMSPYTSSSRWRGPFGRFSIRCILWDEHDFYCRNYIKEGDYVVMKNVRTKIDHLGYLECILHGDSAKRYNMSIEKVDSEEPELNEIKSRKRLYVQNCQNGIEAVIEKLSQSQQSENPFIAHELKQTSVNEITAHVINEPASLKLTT

[3] = biological target: T3, Pot1-DBD_L122A (Schizosaccharomyces pombe, UniProt O13988 1-389, L122A); experiment: filter binding
T3 sequence: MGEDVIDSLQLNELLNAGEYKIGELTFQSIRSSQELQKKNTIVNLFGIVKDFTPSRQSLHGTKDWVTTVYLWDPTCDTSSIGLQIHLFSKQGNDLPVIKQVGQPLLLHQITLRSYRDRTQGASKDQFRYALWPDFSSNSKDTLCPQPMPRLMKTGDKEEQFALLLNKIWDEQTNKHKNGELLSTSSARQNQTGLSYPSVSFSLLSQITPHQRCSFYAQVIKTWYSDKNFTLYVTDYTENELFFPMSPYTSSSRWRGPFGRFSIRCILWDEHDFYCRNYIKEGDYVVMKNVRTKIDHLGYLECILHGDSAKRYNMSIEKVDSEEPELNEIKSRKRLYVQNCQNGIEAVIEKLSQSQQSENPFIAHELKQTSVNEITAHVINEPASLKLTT

In the case of GGTTACGGTTAC (ssDNA) [12mer], the Kd [1] is reported as 0.7 ± 0.2 µM, the Kd [2] is reported as 0.001 ± 0.0001 µM and the Kd [3] is reported as 0.09 ± 0.007 µM.
